We go through two substances from PMC3680381.

In experiment [1] the target is Pf-WRS catalytic domain (aminoacylation and anticodon binding domains) (Plasmodium falciparum). As to the kind of experiment: SEC; gel filtration on Superdex200, 20 mM Tris, 100 mM NaCl, pH 7.5; oligomeric state from migration against markers (BSA, DTD). For orientation: Size exclusion chromatography separates by hydrodynamic size, large species first.
Experiment [2] has as its target Plasmodium falciparum cytoplasmic tryptophanyl-tRNA synthetase, full length (Plasmodium falciparum). Described as above.

One may read the stoichiometry N as the number of molecules, sites or subunits per partner or assembly.

As to “Pf-WRS catalytic domain (aminoacylation and anticodon binding domains) (domain or fragment)”, the stoichiometry N in experiment [1] was 2.
Regarding “Plasmodium falciparum cytoplasmic tryptophanyl-tRNA synthetase, full length (enzyme)”, in experiment [2], the stoichiometry N was determined as 2.
